Measured values published in publication PMC11001197, “The PII protein interacts with the Amt ammonium transport and modulates nitrate/nitrite assimilation in mycobacteria” (Frontiers in Microbiology, 2024).

Target: T1, M. tuberculosis AccA3, His tag fusion (α-subunit of the acyl-CoA carboxylases) (M. tuberculosis, UniProt P96890 1-600)
T1 construct: also called His-AccA3; AccA3-His6
Assay: pull-down
Conditions: both partners purified

T1 sequence (P96890 whole entry, the tested form may be a part): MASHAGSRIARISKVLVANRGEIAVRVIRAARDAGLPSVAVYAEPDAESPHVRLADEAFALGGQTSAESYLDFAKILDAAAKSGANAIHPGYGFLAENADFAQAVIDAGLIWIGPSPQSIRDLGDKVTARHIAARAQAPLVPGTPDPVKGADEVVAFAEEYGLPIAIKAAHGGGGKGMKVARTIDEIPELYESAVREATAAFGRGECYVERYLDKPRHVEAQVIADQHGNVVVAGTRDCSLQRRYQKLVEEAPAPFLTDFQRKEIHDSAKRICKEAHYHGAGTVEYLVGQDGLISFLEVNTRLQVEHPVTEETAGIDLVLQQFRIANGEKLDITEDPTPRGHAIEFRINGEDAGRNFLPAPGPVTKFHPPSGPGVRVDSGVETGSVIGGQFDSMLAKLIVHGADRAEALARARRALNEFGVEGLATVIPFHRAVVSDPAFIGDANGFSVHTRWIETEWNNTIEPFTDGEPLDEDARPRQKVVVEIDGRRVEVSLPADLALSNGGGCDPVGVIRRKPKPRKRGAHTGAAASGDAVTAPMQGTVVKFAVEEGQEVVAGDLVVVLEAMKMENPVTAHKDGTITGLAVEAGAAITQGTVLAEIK

B1: Azospirillum brasilense GlnB (PII protein), without tags (natural protein, A. brasilense, UniProt P21193 1-112, looked up)
chain: MKKIEAIIKPFKLDEVKEALHEVGIKGITVTEAKGFGRQKGHTELYRGAEYVVDFLPKVKIEVVMEDSLVERAIEAIQQAAHTGRIGDGKIFVTPVEEVVRIRTGEKGGDAI
notes: also called Ab-GlnB; PII (Ab); source: E. coli (plasmid pLH25PET, pET28a), obtained without tags according to Gerhardt et al. (2015, 2017)
binding result: binds
